B1: His6-MDT-30-FLAG (natural protein)
chain: MNPNQPPNYPPGNPNQPPPFPPTPYYPMYQAGMPMPYIPQSPQYPQPGPPGGPPPFMGIQIKQEPMWSQENRYGMQAGPSGMPGMPPSSHPYGYPPMHGMPPGMPQGMPPMMDPNMPDFSSPPMHHPTTSLLAQHLSSAPLPPAPPQQQSHLSQLLQQPTTYSTATNPHAAPTQTIARRPDNEARNAQLQEQELAARQQQQQEYMLQQHQQQQQNRAGQLQAEQAFANPPTVSIPPQTGHPPQQTSASSQQRAQETMAQQTEPQSHIRESPQKETNLEKYSTGELCLYGRELVNDLNVKTSYLSTILKKVMERKPLNQGENPNDLADQCKNALQRMSDIRQIIEKRREPTWKRMTGEDYIELMLDDSELKKPMDEERQKRRAELEQRFAIVISKTPPVEGHIWYQGKWISEELHKKYMQFEANKEIVKNLAAELKALAWKIDVTSPGHLKKVDQTKISKKKTDDQV
B2: 35S-Methionine-MDT-6 (natural protein)
chain: MMPRMGPPAAARQDNPLHVSFRNPQWPPNFINKDNVLDYFCNQANAFYEMNSCNQQIRMQNIVNRTVEECLRTMPGIQYVLWYSQPPLFIICKQRRNNVTNVSPIAYYYVINGSVHQAPDMYSLVQSRLLGALEPLRNAFGEVTNYSRYNTAKGYYWEFKNKPNVKKREEEKKEDEEEKLEDRSTNFQKTRTMMLLNQLFSEMPAEDALEREEKEEVEEEEEETLKTEEPTTSTDEPKFAEPTARTTSKQ
modifications: 35S-methionine label

Tests used:
GST-F28F8.5 (C. elegans) [1] = target: GST-F28F8.5 (C. elegans) (UniProt H9G301); experiment: pull-down; GST-F28F8.5 or GST adsorbed in equal amounts on glutathione-agarose, incubated with His6-MDT-30-FLAG purified on a nickel column; Western blot with anti-FLAG M2, densitometry (ImageJ)
GST-F28F8.5 (C. elegans) [2] = target: GST-F28F8.5 (C. elegans) (UniProt H9G301); experiment: pull-down; GST-F28F8.5 or GST adsorbed in equal amounts on glutathione-agarose, incubated with 35S-MDT-6 from rabbit reticulocyte lysate; bound fraction resolved by PAGE, autoradiography, excised bands counted by scintillation

Binder	fold enrichment over GST alone (GST-F28F8.5 (C. elegans) [1])	fold enrichment over GST alone (GST-F28F8.5 (C. elegans) [2])
B1	2.5 fold	–
B2	–	7.7 fold

Reference: PMC5464003
